The text below walks through data of patent publication US20230059489A1 (Pfizer, published 2023).

One test concerns the target T1, mouse FLT3 (mFlt3) (mouse (printed as mFlt3), UniProt Q00342 28-544, limits assumed).
T1 construct: Construct not described
T1 sequence (looked up): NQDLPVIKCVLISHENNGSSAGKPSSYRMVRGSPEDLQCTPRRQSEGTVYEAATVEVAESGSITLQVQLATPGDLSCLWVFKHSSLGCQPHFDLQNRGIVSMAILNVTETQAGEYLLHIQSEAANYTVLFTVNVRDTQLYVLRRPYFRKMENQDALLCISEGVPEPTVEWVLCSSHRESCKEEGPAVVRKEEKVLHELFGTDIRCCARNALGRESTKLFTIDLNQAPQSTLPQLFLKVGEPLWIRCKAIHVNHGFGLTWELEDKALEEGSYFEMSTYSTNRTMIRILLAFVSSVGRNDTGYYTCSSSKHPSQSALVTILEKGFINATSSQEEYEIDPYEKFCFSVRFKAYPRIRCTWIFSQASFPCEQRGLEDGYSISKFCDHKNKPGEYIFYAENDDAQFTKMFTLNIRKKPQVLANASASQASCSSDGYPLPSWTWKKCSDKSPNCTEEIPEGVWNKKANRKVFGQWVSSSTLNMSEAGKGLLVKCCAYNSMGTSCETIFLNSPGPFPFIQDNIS
Description: SPR, Table 6, IgG format, mFlt3 column; set-up for mFlt3 not described. For orientation: In SPR one partner is held on a chip, and binding of the other changes the refractive index at the surface.

A further test deals with T2, human FLT3 (hFLT3) (human, UniProt P36888 27-543).
T2 construct: also called huFlt3; Fms-Like Tyrosine Kinase 3
T2 sequence (looked up): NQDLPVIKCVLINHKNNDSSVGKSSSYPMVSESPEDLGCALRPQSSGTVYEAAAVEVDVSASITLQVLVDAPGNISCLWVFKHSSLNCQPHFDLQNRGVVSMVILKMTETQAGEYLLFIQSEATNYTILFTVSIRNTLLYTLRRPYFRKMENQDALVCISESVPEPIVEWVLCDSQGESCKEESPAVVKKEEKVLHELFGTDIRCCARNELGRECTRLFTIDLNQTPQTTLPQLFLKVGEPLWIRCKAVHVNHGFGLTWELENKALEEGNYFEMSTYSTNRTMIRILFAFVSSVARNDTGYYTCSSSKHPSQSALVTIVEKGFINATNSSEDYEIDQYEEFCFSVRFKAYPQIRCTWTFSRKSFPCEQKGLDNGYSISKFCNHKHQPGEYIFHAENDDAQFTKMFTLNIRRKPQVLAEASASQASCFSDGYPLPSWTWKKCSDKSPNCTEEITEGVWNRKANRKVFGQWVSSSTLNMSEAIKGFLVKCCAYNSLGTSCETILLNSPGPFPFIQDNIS
As to the kind of experiment: SPR (Biacore T200), 37 C; IgG captured on anti-human Fc, hFLT3 as analyte. On the procedure: All experiments were performed on a Biacore T200 surface Plasmon resonance biosensor (GE Lifesciences, Piscataway N.J.).
The sensor chip preparation was performed at 25° C. with a running buffer of 10 mM HEPES, 150 mM NaCl, 0.05% (v/v) Tween-20, pH 7.4. An anti-human Fc sensor chip was made by activating all flow cells of a Biacore CM4 sensor chip with a 1:1 (v/v) mixture of 400 mM EDC and 100 mM NHS for 7 minutes, at a flow rate of 10 μL/min. An anti-human Fc reagent (Goat Anti-Human IgG Fc, Southern Biotech Catalog #2081-01) was diluted to 30 μg/mL in 10 mM Sodium Acetate pH 4.5 and injected on all flow cells for 7 minutes at 20 μL/min. All flow cells were blocked with 100 mM ethylenediamine in 150 mM Borate buffer pH 8.5 for 7 minutes at 10 μL/min.
The experiments were performed at 37° C. using a running buffer of 10 mM HEPES, 150 mM NaCl, 0.05% (v/v) Tween-20, pH 7.4, 1 mg/mL BSA. FLT3 antibodies were captured from undiluted supernatants onto downstream flow cells (flow cells 2, 3 and 4) at a flow rate of 10 μL/min for 1 minute. Different antibodies were captured on each flow cell. Flow cell 1 was used as a reference surface. Following capture of FLT3 antibodies, analyte (buffer, hFLT3) was injected at 30 μL/min on all flow cells for two minutes. After the analyte injection, dissociation was monitored for 10 minutes followed by regeneration of all flow cells with three 1-minute injections of 75 mM Phosphoric Acid. For each captured FLT3 antibody, the following analyte injections were performed: buffer, 11 nM hFLT3, 33 nM hFLT3, 100 nM hFLT3 and 300 nM hFLT3. Buffer cycles were collected for each captured FLT3 antibody for double-referencing purposes (double-referencing as described in Myszka, D. G. Improving biosensor analysis. J. Mol. Recognit. 12, 279-284 (1999)). The double-referenced sensorgrams were fit globally to a simple 1:1 Langmuir with mass transport binding model.

B1: P9B5 (IgG format) (antibody, V domains shown)
VH: EVQLLESGGGLVQPGGSLRLSCAASGFIFASYAMSWVRQAPGKGLEWVSEISSSGGSTTYADSVKGRFTISRDNSKNTLYLQMNSLRAEDTAVYYCARDRVMAGLGYDPFDYWGQGTLVTVSS
VL: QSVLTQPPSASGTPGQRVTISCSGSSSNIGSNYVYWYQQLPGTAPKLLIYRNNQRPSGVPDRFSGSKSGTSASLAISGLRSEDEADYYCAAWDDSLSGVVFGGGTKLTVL
notes: IgG format, captured by anti-human Fc
A word on the Kd: it is the constant that tells how readily two partners part at equilibrium. High values mean weaker binding, low ones tighter binding. In general, koff refers to the rate constant with which the complex falls apart. Read a low koff as slow dissociation. For orientation: kon means a measure of how fast the partners come together. High values mean fast association, low ones slow association. With B1, in the test with mouse FLT3 (mFlt3), the Kd was 1.5 nM. In the test with human FLT3 (hFLT3), this molecule showed a Kd of 11 nM, a koff of 0.00047 s⁻¹, a kon of 42000 M⁻¹ s⁻¹ and a t1/2 of 24.4 min.

B2: P7F9 (IgG format) (antibody, V domains shown)
VH: EVQLLESGGGLVQPGGSLRLSCAASGFTFSSYAMSWVRQAPGKGLEWVSAIGGSGGSTYYADSVKGRFTISRDNSKNTLYLQMNSLRAEDTAMYYCARDYYAFSDPAYGGMDVWGQGTLVTVSS
VL: NFMLTQPHSVSESPGKTVTISCTRSSGSIASNYVQWYQQKPGQAPVLVVYDDSDRPSGIPERFSGSNSGNTATLTISRVEAGDEADYYCQVWDSSSDHWVFGGGTKLTVL
notes: as for B1
Take B2: in the test with mouse FLT3 (mFlt3), binding was characterised by a dissociation constant (Kd) of 13.8 nM. Also, in the test with human FLT3 (hFLT3), the Kd was determined as 12 nM, the koff stood at 0.0013 s⁻¹, the kon turned out to be 110000 M⁻¹ s⁻¹ and the t1/2 turned out to be 8.9 min.

B3: P7H3 (IgG format) (antibody, V domains shown)
VH: EVQLLESGGGLVQPGGSLRLSCAASGFTFSSYAMHWVRQAPGKGLEWVSAISGSGGSTYYADSVKGRFTISRDNSKNTLYLQMNSLRAEDTAVYYCARGTRWWWGDAFDHWGQGTLVTVSS
VL: QSVLTQPPSVSVAPGKTARITCGGNNIGSKSVHWYQQKPGQAPVLVIYYDSDRPSGIPERFSGSNSGNTATLTISRVEAGDEADYYCQVWDSSTAWVFGGGTKLTVL
notes: as for B1
Turning to B3, the affinity with mouse FLT3 (mFlt3), expressed as Kd, was 0.9 nM. In the test with human FLT3 (hFLT3), this molecule yielded a Kd of 2 nM, a koff of 0.0018 s⁻¹, a kon of 990000 M⁻¹ s⁻¹ and a t1/2 of 6.6 min.

B4: P4C7 (IgG format) (antibody, V domains shown)
VH: QVQLVQSGAEVKKPGSSVKVSCKASGGTFSSYTISWVRQAPGQGLEWMGGIIPAFGIANYAQKFQGRVTITADKSTSTAYMELSSLRSEDTAVYYCAKGGSYSLDYFDIWGQGTLVTVSS
VL: EIVLTQSPGTLSLSPGERATLSCRASQYVSASLLAWYQQKPGQAPRLLIYGASTRATGIPDRFSGSGSGTDFTLTISRLEPEDFAVYYCQQYARSSTFGQGTKVEIK
notes: as for B1
B4 yielded a Kd with mouse FLT3 (mFlt3) of 402 nM. Further, in the test with human FLT3 (hFLT3), the Kd was 7.7 nM, the koff was found to be 0.0012 s⁻¹, the kon came out at 160000 M⁻¹ s⁻¹ and the t1/2 worked out at 9.3 min.

B5: P5A3 (IgG format) (antibody, V domains shown)
VH: QVQLVQSGAEVKKPGSSVKVSCKASGGTFSSYYIGWVRQAPGQGLEWMGGIIPWFGTANYAQKFQGRVTITADKSTNTAYMELSSLRSEDTAVYYCAADHHDSPSGYTSGGFDVWGQGTLVTVSS
VL: QSALTQPASVSGSPGQSITISCTGTSSDVGGYNYVSWYQQHPGKAPKLMIYEVSKRPSGVPDRFSGSKSGNTASLTVSGLQAEDEADYYCSSYAGSNTVVFGGGTKLTVL
notes: as for B1
Consider B5, for which the Kd with mouse FLT3 (mFlt3) amounted to 19.3 nM. Also, in the test with human FLT3 (hFLT3), binding was put at a Kd of 102 nM, the koff was 0.01 s⁻¹, the kon was determined as 98000 M⁻¹ s⁻¹ and the t1/2 came to 1.2 min.
